For orientation: Kd means the concentration at which binding is half-saturated.

One experiment addresses T1, IGFBP-2 (UniProt P18065 36-325).
T1 construct: source: bought (commercially available, carrier-free)
T1 sequence (looked up): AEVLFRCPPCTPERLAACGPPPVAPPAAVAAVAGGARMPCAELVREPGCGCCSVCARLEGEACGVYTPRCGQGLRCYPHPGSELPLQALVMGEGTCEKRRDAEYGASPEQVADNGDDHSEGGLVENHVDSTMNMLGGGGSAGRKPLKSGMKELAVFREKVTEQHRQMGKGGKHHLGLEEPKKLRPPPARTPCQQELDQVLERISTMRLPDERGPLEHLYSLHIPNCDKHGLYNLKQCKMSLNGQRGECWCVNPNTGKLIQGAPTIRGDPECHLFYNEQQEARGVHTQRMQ
Briefly: SPR; IGF binding protein or Fc fusion amine-coupled to a CM4 chip, growth factor as analyte; Biacore T100 or T200, HBS-P, BSA (0.2 mg/ml) or NaCl (0.65 M final) to reduce non-specific binding, 25 °C; 1:1 binding analysis. Conditions: both partners purified. In general terms: In SPR one partner is held on a chip, and binding of the other changes the refractive index at the surface.

A further experiment concerns the target T2, IGFBP-3 (UniProt P17936 28-291).
T2 construct: source: bought (commercially available, carrier-free)
The description is as above. Conditions: both partners purified.

In the next experiment the target is T3, IGFBP-7 (UniProt Q16270 27-282).
T3 construct: source: bought (commercially available, carrier-free)
T3 sequence (looked up): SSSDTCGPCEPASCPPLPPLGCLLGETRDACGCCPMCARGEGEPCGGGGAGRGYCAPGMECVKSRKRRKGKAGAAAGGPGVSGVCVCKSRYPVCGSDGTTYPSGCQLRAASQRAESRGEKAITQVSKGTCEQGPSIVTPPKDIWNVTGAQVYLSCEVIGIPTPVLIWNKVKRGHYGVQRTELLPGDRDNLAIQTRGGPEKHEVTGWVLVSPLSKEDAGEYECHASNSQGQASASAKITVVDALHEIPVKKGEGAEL
The experiment is described as above. The following applies: both partners purified.

The target in experiment [1] is T4, 56662 (UniProt P17936-1 28-291).
T4 construct: the secretory signal peptide was derived from IGFBP-2; Fc portion of IgG1 added to the C terminus of IGFBP-3; called an Fc dimer; Probably the mature IGFBP-3 after removal of the IGFBP-2 signal peptide; also called IGFBP-3-Fc; BP3-Fc (unmodified IGFBP-3 Fc construct); source: 293 T cells, transfected; conditioned medium purified by proteinA Sepharose; not shown: Fc (IgG1), C-terminal, kept
The description is as above. The following applies: both partners purified.

Experiment [2] has as its target T5, Chimera A.
T5 construct: signal peptide derived from IGFBP-2; VEGF receptor 1 domain 2, first part of VEGF-trap; VEGF receptor 2 domain 3, second part of VEGF-trap; VEGF-trap inserted between the IGFBP-3 and the Fc domain; also called chA; BP3-VEGF-trap-Fc; source: 293 T cells, transfected; conditioned medium purified by proteinA Sepharose; not shown: Fc (IgG1), C-terminal, kept
Described as above. The following applies: both partners purified.

The target of experiment [3] is T4, 56662. Briefly: SPR; growth factor immobilised on a CM4 chip instead of the binding protein (asterisk in Table 1), binding protein or Fc fusion as analyte; HBS-P, 25 °C; regeneration with 4 M MgCl2 then 5 M guanidinium chloride; 1:1 binding analysis. Conditions: both partners purified.
For experiment [4], the target named is T5, Chimera A. The description is as above. Conditions: both partners purified.
Target sequence in this assay (Q02297 20-241, stated change not applied): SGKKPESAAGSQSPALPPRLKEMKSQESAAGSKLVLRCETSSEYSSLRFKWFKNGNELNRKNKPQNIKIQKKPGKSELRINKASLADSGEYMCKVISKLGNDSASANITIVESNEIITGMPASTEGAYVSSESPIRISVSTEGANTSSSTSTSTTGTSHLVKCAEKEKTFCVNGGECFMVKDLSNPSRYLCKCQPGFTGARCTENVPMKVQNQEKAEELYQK
In experiment [5] the target is T6, neuregulin-1 (UniProt Q02297 20-241). Briefly: cell-based or functional assay.
T6 sequence (Q02297 20-241): as the sequence (Q02297 20-241, stated change not applied) above
For experiment [6], the target named is T7, hepatocyte growth factor (UniProt P14210 32-728). Briefly: cell-based or functional assay.
T7 sequence (P14210 32-728): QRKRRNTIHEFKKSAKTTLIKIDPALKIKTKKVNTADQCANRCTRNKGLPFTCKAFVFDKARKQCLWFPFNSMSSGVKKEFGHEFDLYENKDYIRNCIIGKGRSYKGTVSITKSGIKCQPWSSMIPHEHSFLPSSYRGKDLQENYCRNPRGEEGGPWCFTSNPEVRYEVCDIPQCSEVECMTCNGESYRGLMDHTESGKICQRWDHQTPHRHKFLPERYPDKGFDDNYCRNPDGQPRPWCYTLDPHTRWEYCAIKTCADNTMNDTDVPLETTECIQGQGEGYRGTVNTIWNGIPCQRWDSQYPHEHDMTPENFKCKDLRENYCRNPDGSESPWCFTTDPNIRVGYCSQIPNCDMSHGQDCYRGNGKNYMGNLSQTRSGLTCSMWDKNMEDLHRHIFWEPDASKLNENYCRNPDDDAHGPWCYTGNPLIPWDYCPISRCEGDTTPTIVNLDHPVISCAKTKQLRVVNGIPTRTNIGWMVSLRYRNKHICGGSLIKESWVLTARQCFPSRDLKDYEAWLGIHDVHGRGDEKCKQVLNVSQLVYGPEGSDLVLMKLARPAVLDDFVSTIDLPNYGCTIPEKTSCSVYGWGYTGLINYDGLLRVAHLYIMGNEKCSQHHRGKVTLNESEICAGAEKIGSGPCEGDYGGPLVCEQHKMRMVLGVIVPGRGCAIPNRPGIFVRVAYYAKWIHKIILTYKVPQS
The target of experiment [7] is T8, PDGF BB (UniProt P01127 82-190). Kind of experiment: cell-based or functional assay.
T8 sequence (P01127 82-190): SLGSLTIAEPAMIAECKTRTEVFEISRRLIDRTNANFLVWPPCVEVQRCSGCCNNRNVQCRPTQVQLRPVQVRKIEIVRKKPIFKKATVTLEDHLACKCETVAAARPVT
For experiment [8], the target named is T9, insulin-like growth factor-1 (UniProt P05019 49-118). Kind of experiment: cell-based or functional assay.
T9 sequence (P05019 49-118): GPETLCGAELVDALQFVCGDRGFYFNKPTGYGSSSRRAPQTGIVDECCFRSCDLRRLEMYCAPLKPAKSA
Experiment [9] has as its target T10, Basic FGF (UniProt P09038 143-288). Briefly: cell-based or functional assay.
In experiment [10] the target is T6, neuregulin-1. Kind of experiment: SPR; growth factor immobilised on a CM4 chip instead of the binding protein (asterisk in Table 1), binding protein or Fc fusion as analyte; HBS-P, 25 °C; regeneration with 4 M MgCl2 then 5 M guanidinium chloride; 1:1 binding analysis. Conditions: both partners purified.
The target in experiment [11] is T7, hepatocyte growth factor. Described as above. The following applies: both partners purified.
Experiment [12] deals with T8, PDGF BB. Described as above. The following applies: both partners purified.
Experiment [13] deals with T10, Basic FGF. The experiment is described as above. Conditions: both partners purified.
Experiment [14] addresses T9, insulin-like growth factor-1. Kind of experiment: SPR; IGF binding protein or Fc fusion amine-coupled to a CM4 chip, growth factor as analyte; Biacore T100 or T200, HBS-P, BSA (0.2 mg/ml) or NaCl (0.65 M final) to reduce non-specific binding, 25 °C; 1:1 binding analysis. The following applies: both partners purified.
The target of experiment [15] is T11, insulin-like growth factor-2 (UniProt P01344 25-91).
T11 construct: insulin-like growth factor 2, commercial growth factor; also called IGF2; IGF-2
T11 sequence (P01344 25-91): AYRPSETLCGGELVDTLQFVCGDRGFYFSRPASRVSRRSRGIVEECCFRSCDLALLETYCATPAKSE
The description is as above. Conditions: both partners purified.

For another experiment, the target named is VEGF-B (UniProt P49765 22-207). Kind of experiment: SPR; growth factor immobilised on a CM4 chip instead of the binding protein (asterisk in Table 1), binding protein or Fc fusion as analyte; HBS-P, 25 °C; regeneration with 4 M MgCl2 then 5 M guanidinium chloride; 1:1 binding analysis. The following applies: both partners purified.

T10 sequence (P09038 143-288): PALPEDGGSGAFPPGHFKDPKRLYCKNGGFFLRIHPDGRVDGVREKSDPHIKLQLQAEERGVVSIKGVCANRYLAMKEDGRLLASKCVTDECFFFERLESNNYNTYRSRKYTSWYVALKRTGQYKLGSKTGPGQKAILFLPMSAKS

B1: VEGF-B (ligand)
chain: PVSQPDAPGHQRKVVSWIDVYTRATCQPREVVVPLTVELMGTVAKQLVPSCVTVQRCGGCCPDDGLECVPTGQHQVRMQILMIRYPSSQLGEMSLEEHSQCECRPKKKDSAVKPDSPRPLCPRCTQHHQRPDPRTCRCRCRRRSFLRCQGRGLELNPDTCRCRKLRR
modifications: Disulfide-linked homodimer. R&D 751-VE taken as the VEGF-B167 isoform; isoform and limits are not printed.
Turning to B1, the Kd in the experiment with IGFBP-2 was determined as 2.82 nM; in the experiment with IGFBP-3, 16.1 nM; with IGFBP-7, 9.88 nM; in the experiment with 56662 [1] it was 14.3 nM; with Chimera A [2], 0.49 nM.

B2: neuregulin-1 (ligand)
chain: SERKEGRGKGKGKKKERGSGKKPESAAGSQSPALPPRLKEMKSQESAAGSKLVLRCETSSEYSSLRFKWFKNGNELNRKNKPQNIKIQKKPGKSELRINKASLADSGEYMCKVISKLGNDSASANITIVESNEIITGMPASTEGAYVSSESPIRISVSTEGANTSSSTSTSTTGTSHLVKCAEKEKTFCVNGGECFMVKDLSNPSRYLCKCPNEFTGDRCQNYVMASFYKHLGIEFMEAEELYQK
modifications: R&D 377-HB, neuregulin extracellular domain, taken as NRG1-beta1 Ser2-Lys246; the paper prints only the catalogue number and 'extracellular domain'.
Take B2: the Kd with IGFBP-3 is 2.09 nM; in the experiment with IGFBP-7, 1600 nM; with 56662 [1], 4.46 nM; in the experiment with Chimera A [2], 3.21 nM; with 56662 [3], 4.66 nM; with Chimera A [4], 1.71 nM.

B3: D3 (Fc fusion)
chain: GASSAGLGPVVRCEPCDARALAQCAPPPAVCAELVREPGCGCCLTCALSEGQPCGIYTERCGSGLRCQPSPDEARPLQALLDGRGLCVNASAVSRPAPPAPGNASESEEDRSAGSVESPSVSSTHRVSDPKFHPKGHAKVDYESQSTDTQNFSSESKRETEYGPCRREMEDTLNHLKFLNVLSPRGVHIPNCDKKGFYKKKQCRPSKGRKRGFCWCVDKYGQPLPGYTTKGKEDVHCYSMQSK
Turning to B3, in the experiment with neuregulin-1 [5], the “IC50 of inhibition of NRG-stimulated proliferation, Hep3B cells” value was found to be 43 nM and the “IC50 of inhibition of NRG-stimulated proliferation, MCF-7 cells” value came out at 112 nM. Further, in the experiment with hepatocyte growth factor [6], the “IC50 of inhibition of HGF-stimulated proliferation, HUVEC” value stood at 56 nM and the “IC50 of inhibition of HGF-stimulated proliferation, Hep3B cells” value was determined as 58 nM. For the same molecule, the “IC50 of inhibition of PDGF BB-stimulated proliferation, 3T3 cells” value in the experiment with PDGF BB [7] turned out to be 30 nM. In experiment [8], the “IC50 of inhibition of IGF1-stimulated proliferation, HUVEC” value was 7.45 nM; the “IC50 of inhibition of IGF1-stimulated proliferation, Hep3B cells” value worked out at 21 nM; the “IC50 of inhibition of IGF1-stimulated proliferation, MCF-7 cells” value was determined as 29 nM. For the same molecule, in the experiment with Basic FGF [9], the “IC50 of inhibition of bFGF-stimulated proliferation, HUVEC” value was 39 nM; the “IC50 of inhibition of bFGF-stimulated proliferation, Hep3B cells” value worked out at 59 nM; the “IC50 of inhibition of bFGF-stimulated proliferation, MCF-7 cells” value stood at 26 nM. Moreover, the Kd with neuregulin-1 [10] amounted to 2.62 nM. For the same molecule, the Kd with hepatocyte growth factor [11] came to 2.63 nM. Further, in the experiment with PDGF BB [12], the Kd was 5.29 nM. In the experiment with Basic FGF [13], this molecule displayed a Kd of 3.29 nM.

B4: D3 (Fc fusion)
chain: B3 chain
modifications: Secreted Fc-fusion dimer; Fc omitted. Deletions 121-126, 166-174 and 180-185 are in 56662 precursor numbering (UniProt = construct + 2). The IGFBP-2 signal peptide is removed.
As to B4, the Kd was found to be 0.51 nM in [14] and 0.22 nM in experiment [15].

B5: D3 (Fc fusion)
chain: B3 chain
modifications: Secreted Fc-fusion dimer; Fc omitted. Deletions 121-126, 166-174 and 180-185 are in 56662 precursor numbering (UniProt = construct + 2). The IGFBP-2 signal peptide is removed. / Disulfide-linked …
For the molecule B5, the Kd in the experiment with VEGF-B came out at 19.8 nM.
